Laboratory results reported in publication PMC7782096, “BAP1 suppresses prostate cancer progression by deubiquitinating and stabilizing PTEN” (Molecular Oncology, 2020).

Biological target: T1, His-tagged BAP1 protein (UniProt Q92560 1-729)
T1 construct: BAP1, full length, inserted into pET-28a; also called His-BAP1; source: E. coli expressing system, purified
T1 sequence (looked up): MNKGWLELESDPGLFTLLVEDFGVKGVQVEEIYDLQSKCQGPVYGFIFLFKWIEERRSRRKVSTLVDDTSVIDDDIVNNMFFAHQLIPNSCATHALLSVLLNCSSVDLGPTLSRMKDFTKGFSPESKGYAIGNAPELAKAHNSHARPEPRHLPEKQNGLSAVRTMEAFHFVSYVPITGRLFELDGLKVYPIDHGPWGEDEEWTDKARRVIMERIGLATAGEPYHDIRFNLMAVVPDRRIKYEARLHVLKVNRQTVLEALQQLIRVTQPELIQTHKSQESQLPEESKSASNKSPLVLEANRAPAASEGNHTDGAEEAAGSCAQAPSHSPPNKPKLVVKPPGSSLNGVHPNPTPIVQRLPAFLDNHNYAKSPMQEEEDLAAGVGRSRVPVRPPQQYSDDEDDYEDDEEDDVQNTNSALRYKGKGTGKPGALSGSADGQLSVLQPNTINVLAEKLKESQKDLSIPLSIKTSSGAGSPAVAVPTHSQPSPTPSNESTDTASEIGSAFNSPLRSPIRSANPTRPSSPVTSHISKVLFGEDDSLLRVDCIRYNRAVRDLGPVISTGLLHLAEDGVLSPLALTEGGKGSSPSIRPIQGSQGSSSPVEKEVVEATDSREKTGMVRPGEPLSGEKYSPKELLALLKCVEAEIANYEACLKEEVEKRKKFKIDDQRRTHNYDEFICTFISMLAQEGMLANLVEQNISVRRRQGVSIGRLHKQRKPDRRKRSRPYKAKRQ
Experiment: pull-down; purified GST-PTEN on GST beads incubated with recombinant His-BAP1 purified from E. coli, 4 °C; western blotting
Conditions: both partners purified

binding result: binds
B1: GST-tagged PTEN recombinant protein (natural protein)
chain: not shown
notes: PTEN; also called GST-PTEN; source: bacterially expressed (E. coli), purified
